For this assay, the target named is T1, HypD (Escherichia coli, UniProt P24192 1-373).
T1 sequence (looked up): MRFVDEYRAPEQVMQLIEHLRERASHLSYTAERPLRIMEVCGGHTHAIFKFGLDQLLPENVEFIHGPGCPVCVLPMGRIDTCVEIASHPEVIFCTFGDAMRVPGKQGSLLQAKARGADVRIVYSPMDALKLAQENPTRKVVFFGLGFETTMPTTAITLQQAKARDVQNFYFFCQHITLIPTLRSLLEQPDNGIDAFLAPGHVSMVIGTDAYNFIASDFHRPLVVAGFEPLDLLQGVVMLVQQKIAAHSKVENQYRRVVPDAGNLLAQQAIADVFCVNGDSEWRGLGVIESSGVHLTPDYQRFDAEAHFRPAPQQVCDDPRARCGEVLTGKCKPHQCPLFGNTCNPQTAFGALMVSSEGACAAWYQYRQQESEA
Put plainly: pull-down.

B1: StrepII-tagged HypC with amino acid exchange C2A (natural protein, Escherichia coli, UniProt P0AAM3 2-90, looked up)
chain: AIGVPGQIRTIDGNQAKVDVCGIQRDVDLTLVGSCDENGQPRVGQWVLVHVGFAMSVINEAEARDTLDALQNMFDVEPDVGALLYGEEK
For the molecule B1, the binding result was “binds”.
